Test results as given in patent US20180230233A1 (Genentech, published 2018).

What was measured:
human tryptase beta 3 [1] = molecular target: T1, human tryptase beta 3 (human, UniProt P20231 31-275); test: cell-based or functional assay
human tryptase beta 3 [2] = molecular target: T1, human tryptase beta 3; test: SPR, protocol as for tryptase beta 1
Protocol: In this experiment, all the humanized variants were expressed as IgG by transient transfection of 293 cells. IgG was purified with protein G affinity chromatography. The affinity of each variant for recombinant His-tagged human tryptase beta 1 monomer (SEQ ID NO: 128) was determined by SPR analysis using a BIAcore® T200. BIAcore® Series S CM5 sensor chips were immobilized with monoclonal mouse anti-human IgG (Fc) antibody (Human antibody capture kit from GE Healthcare) and anti-tryptase variants were subsequently captured on each flow cell. Serial 3-fold dilutions of the human tryptase beta 1 monomer were injected at a flow rate of 30 μl/min. Each sample was analyzed with 3 min association and 10 min dissociation. After each injection, the chip was regenerated using 3 M MgCl₂. Binding response was corrected by subtracting the response units (RU) from a flow cell capturing an irrelevant IgG at similar density. A 1:1 Languir model of simultaneous fitting of kₒₙ and koff was used for kinetics analysis.

T1 sequence (P20231 other isoform, or with tags, fused parts or gaps limits assumed): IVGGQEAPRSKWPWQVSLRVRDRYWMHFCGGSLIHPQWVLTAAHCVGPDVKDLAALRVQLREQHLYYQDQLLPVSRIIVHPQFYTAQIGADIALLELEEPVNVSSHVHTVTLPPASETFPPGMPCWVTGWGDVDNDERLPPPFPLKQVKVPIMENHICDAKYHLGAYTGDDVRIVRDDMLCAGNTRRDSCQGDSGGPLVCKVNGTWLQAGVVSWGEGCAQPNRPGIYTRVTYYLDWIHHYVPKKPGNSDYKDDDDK

B1: huE104.v2 IgG4 (S228P) (antibody)
heavy: not shown
light: DIQMTQSPSSLSASVGDRVTITCQSIKSVYNNRLGWYQQKPGKAPKLLIYETSILTSGVPSRFSGSGSGTDFTLTISSLQPEDFATYYCAGGFDRSGDTTFGQGTKVEIKRTVAAPSVFIFPPSDEQLKSGTASVVCLLNNFYPREAKVQWKVDNALQSGNSQESVTEQDSKDSTYSLSSTLTLSKADYEKHKVYACEVTHQGLSSPVTKSFNRGEC
notes: also called huE104.v2 Control
B1 was tested, and the “IC50 (nM), tryptase enzymatic assay” value (human tryptase beta 3 [1]) was 2.8 nM and the Kd (human tryptase beta 3 [2]) was 0.13 nM.
